Measured values taken from patent publication US20250262210A1 (TRUSTEES OF COLUMBIA UNIVERSITY IN THE CITY OF NEW YORK, published 2025).

Legend:
Experiment in all cases: IP/MS, LZTR1 wild type-FLAG, U87
KIAA1217 = KIAA1217 (human, UniProt Q5T5P2 1-1943, limits assumed)
Procedure, shortened: (§1)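 Gel slices were reduced with 5 mM DTT, alkylated with 11 mM IAA and digested overnight at 37° C. with trypsin. Peptides were analysed on an Orbitrap Fusion Tribrid by LC-MS/MS.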

SBNO2 = target: T1, SBNO2 (human, UniProt Q9Y2G9 1-1366, limits assumed)
T1 sequence (looked up): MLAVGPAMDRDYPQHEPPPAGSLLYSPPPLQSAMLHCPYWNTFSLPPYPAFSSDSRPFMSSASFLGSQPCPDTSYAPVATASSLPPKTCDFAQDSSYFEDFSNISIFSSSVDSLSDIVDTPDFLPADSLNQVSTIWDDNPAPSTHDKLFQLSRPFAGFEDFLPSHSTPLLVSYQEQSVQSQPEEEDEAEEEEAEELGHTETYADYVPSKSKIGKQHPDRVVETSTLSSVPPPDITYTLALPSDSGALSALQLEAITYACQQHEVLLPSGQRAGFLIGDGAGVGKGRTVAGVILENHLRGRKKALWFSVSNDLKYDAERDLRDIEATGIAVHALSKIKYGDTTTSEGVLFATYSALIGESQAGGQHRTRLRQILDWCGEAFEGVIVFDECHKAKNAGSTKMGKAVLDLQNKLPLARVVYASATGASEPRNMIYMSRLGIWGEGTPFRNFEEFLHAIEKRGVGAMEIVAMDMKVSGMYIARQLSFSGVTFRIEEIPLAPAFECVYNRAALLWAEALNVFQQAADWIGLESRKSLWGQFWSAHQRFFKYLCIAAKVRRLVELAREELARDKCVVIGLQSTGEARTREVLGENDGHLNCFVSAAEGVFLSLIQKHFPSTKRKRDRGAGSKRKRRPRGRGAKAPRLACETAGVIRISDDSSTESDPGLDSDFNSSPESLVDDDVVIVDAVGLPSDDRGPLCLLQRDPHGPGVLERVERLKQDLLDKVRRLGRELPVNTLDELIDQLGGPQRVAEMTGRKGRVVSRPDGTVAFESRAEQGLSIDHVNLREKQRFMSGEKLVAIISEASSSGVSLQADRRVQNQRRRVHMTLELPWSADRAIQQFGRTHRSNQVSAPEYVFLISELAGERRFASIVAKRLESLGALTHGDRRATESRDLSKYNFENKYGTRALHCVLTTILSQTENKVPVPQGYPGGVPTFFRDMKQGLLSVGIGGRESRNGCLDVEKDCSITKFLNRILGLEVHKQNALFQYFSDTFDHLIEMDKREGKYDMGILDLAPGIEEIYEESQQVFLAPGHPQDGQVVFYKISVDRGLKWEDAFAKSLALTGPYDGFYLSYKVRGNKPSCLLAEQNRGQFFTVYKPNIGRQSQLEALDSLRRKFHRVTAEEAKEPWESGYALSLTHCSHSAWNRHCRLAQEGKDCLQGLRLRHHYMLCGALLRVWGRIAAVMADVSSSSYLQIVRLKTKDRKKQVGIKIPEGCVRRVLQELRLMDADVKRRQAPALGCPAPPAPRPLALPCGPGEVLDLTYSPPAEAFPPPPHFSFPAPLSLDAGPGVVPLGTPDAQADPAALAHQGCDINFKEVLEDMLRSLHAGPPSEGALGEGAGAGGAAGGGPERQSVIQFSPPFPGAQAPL
Procedure, shortened: as §1

KDM5C = KDM5C (human, UniProt P41229 1-1560, limits assumed)
Procedure, shortened: as §1

Measured: binding result

Sequence of KDM5C (P41229 whole entry): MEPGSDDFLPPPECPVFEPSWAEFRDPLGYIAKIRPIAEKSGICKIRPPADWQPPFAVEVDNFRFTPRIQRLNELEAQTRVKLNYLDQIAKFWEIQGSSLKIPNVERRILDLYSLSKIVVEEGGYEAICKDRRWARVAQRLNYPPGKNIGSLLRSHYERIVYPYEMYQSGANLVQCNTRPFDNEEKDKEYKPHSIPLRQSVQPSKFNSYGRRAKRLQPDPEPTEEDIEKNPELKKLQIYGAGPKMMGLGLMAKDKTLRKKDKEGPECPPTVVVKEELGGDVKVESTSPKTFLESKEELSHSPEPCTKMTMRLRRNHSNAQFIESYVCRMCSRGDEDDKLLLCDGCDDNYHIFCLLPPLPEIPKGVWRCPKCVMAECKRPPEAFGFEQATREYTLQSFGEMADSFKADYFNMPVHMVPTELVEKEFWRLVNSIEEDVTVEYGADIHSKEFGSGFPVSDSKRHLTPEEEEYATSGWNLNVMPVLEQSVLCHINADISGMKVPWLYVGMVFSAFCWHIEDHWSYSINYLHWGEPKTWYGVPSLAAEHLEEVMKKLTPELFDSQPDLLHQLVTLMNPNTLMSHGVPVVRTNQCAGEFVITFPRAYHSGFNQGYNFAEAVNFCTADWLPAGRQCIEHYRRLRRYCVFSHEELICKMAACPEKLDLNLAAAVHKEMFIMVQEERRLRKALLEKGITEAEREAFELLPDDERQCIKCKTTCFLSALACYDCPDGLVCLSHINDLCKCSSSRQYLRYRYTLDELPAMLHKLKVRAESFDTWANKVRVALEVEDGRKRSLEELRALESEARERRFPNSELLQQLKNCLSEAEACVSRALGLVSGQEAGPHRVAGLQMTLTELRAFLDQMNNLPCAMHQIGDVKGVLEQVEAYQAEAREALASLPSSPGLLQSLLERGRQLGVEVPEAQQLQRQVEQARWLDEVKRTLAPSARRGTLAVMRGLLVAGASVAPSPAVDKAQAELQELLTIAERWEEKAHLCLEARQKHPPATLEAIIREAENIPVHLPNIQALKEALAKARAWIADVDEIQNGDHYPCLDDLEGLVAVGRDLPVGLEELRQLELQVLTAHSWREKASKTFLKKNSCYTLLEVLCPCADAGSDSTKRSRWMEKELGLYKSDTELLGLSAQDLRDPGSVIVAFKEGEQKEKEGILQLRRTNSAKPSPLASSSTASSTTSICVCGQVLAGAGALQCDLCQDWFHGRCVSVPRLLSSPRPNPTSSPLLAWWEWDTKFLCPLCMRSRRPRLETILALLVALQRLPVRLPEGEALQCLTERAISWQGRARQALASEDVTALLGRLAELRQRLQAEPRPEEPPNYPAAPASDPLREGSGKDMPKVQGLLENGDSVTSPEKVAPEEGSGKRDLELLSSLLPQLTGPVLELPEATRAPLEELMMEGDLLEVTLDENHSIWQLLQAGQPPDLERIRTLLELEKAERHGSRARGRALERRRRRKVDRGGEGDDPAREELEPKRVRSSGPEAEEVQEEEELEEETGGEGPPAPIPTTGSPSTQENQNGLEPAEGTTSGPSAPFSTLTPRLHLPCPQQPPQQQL
Sequence of KIAA1217 (Q5T5P2 whole entry, the tested form may be a part): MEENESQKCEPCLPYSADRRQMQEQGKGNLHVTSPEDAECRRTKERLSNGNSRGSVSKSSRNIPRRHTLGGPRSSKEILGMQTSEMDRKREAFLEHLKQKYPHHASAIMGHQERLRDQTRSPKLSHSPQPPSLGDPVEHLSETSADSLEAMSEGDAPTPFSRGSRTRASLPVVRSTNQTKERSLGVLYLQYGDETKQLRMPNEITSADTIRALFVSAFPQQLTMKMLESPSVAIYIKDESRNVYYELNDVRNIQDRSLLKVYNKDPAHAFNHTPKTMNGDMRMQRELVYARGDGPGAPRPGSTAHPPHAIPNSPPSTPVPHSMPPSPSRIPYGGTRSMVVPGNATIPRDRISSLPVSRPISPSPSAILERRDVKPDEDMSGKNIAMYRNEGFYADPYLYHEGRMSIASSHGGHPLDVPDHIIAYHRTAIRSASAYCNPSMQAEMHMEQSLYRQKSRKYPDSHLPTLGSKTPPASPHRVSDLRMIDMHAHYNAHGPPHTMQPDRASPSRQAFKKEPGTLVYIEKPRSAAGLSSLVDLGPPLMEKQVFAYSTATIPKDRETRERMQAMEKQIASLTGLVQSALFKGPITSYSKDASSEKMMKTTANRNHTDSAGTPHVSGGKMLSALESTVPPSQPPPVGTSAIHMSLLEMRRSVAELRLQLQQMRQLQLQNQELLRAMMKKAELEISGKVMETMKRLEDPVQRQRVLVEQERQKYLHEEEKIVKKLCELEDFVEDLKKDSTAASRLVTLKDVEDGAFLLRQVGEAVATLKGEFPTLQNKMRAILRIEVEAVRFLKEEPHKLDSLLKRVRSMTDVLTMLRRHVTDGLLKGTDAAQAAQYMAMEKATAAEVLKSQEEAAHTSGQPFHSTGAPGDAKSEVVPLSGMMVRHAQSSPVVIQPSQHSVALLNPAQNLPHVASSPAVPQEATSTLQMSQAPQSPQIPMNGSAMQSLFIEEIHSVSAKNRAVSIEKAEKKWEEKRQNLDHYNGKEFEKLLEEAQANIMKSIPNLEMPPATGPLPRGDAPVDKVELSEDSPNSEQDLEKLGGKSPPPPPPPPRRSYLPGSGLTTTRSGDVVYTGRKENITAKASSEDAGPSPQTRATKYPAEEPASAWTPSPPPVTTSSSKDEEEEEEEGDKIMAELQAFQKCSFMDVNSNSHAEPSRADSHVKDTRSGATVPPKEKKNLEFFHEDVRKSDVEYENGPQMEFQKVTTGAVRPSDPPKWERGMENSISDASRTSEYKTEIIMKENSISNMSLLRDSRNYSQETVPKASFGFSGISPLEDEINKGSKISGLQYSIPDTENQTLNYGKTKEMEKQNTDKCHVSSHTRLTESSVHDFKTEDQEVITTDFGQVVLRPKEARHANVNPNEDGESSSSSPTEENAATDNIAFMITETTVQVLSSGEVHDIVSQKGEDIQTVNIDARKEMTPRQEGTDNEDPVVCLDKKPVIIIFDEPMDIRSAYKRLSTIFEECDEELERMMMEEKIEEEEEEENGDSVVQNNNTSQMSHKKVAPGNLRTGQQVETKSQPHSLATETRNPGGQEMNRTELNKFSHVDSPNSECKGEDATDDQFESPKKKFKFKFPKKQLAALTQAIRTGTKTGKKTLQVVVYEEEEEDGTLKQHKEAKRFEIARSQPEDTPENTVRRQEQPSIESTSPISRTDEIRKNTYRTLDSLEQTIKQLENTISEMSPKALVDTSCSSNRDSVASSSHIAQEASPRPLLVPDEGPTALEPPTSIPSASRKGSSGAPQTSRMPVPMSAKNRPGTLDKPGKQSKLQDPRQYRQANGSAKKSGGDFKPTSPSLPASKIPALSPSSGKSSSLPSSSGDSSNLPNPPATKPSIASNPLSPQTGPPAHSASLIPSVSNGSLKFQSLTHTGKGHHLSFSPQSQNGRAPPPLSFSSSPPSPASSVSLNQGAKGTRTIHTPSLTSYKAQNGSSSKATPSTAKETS

B1: LZTR1-FLAG (other, human, UniProt Q8N653 1-840, looked up)
chain: MAGPGSTGGQIGAAALAGGARSKVAPSVDFDHSCSDSVEYLTLNFGPFETVHRWRRLPPCDEFVGARRSKHTVVAYKDAIYVFGGDNGKTMLNDLLRFDVKDCSWCRAFTTGTPPAPRYHHSAVVYGSSMFVFGGYTGDIYSNSNLKNKNDLFEYKFATGQWTEWKIEGRLPVARSAHGATVYSDKLWIFAGYDGNARLNDMWTIGLQDRELTCWEEVAQSGEIPPSCCNFPVAVCRDKMFVFSGQSGAKITNNLFQFEFKDKTWTRIPTEHLLRGSPPPPQRRYGHTMVAFDRHLYVFGGAADNTLPNELHCYDVDFQTWEVVQPSSDSEVGGAEVPERACASEEVPTLTYEERVGFKKSRDVFGLDFGTTSAKQPTQPASELPSGRLFHAAAVISDAMYIFGGTVDNNIRSGEMYRFQFSCYPKCTLHEDYGRLWESRQFCDVEFVLGEKEECVQGHVAIVTARSRWLRRKITQARERLAQKLEQEAAPVPREAPGVAAGGARPPLLHVAIREAEARPFEVLMQFLYTDKIKYPRKGHVEDVLLIMDVYKLALSFQLCRLEQLCRQYIEASVDLQNVLVVCESAARLQLSQLKEHCLNFVVKESHFNQVIMMKEFERLSSPLIVEIVRRKQQPPPRTPLDQPVDIGTSLIQDMKAYLEGAGAEFCDITLLLDGHPRPAHKAILAARSSYFEAMFRSFMPEDGQVNISIGEMVPSRQAFESMLRYIYYGEVNMPPEDSLYLFAAPYYYGFYNNRLQAYCKQNLEMNVTVQNVLQILEAADKTQALDMKRHCLHIIVHQFTKVSKLPTLRSLSQQLLLDIIDSLASHISDKQCAELGADI
notes: Expressed in HEK 293T, HeLa or U87 cells; used as cell lysate; also called LZTR1 wild type-FLAG; LZTR1 WT; not shown: FLAG tag at the C-terminus
binds: KIAA1217 | SBNO2 | KDM5C
